From a protein production outcome set (Wang et al. 2014)

Assay: label from the status in PepcDB records

Sequence	protein production
MITKVTARNNKITPVELLNQKFGNKINLGNFADAVFTDAAFKNVAGIANLPMKAPVMQVLMENCIVSKYLKQFVPDRSVCFVEEGQKFYIVLEDGQKIEVPEDVNKALKATVSDVKHWAGYLTEDGEHVIDLLKPAPGPHFYVNLLIGNRLGFKRTLQTTPKSVVDRFGRGSFRSHAATQVLATRFDMRQEENGFPANRQFYLYEDGKQIFYSALIDDNIVEATCKHSCNRTVIKYKTACNLEITRTIFLVPHKKGFPLATELQRIEIKNASDKARNLSITYTGMFGTGAVHAIFEDVTYTNVIMQSAALYNDKGEFIGITPDYYPEEFKQDTRFVTMIVRNGDEKSFPQSFCTDYNDFVGTGTLEHPAGGCNLNNKLNRKGPGFFALGAPFTVEPGKTVIIDTFTGLSSSKDNENYSDAVMLRELDNLLRYFEKSESVEETLNEIINFHENYGKYFQFNTGNKLFDSGFNRNLAFQVLYQTFMSRSFGQTQKGYREIGFREIQDLFASMYYFINIGYQDFVKELLFEWTANVYKMGYANHNFYWVGKQPGLYSDDSLWLLQAYYRYIIYTKDTSVLNEEVPVADGNNEKRAVRETLKAIIQYSACISVGDHGLPLLDLADWNDCLKIASNSIDGATKEKLYYEQLKKTNGKYGDRFMSDYSESVMNAFLLKLAIDHLAEIATLDNDTQLAQQMSELSKEVTDRIQKHAWKENFFARVLINRYKDGSYTYLGAKGDKLSADPNIDGVYFLNSFAWSVLSDVATDEQIAIMVDVIKKHLLTPYGLRLVTPADLNKIANDTATGHYFFGDRENGAVFKHASMMAVAALIKAAKKVKDNELAKEMARIAYFMIDLVLPYKNLENPFQVAGNPRICTQYINTDTGENIGPLLSGTATWLNLNLISLAGIEYTRDGISFNPILREEETQLNFTLKAPKCSYKFSITKPVGFARMESSEYELFVDGQKIDNTVIPMYTDEKEHIVTLKFK	not failed
MITNNVSLLIMGIDENQERQKEYNGAFHTDALLLATFNKDDKTVKLTSIPRDTYTYVPVEKKKDKITHAYGSGFVKNGKDGGPQTSVEAVEKLLQVPVDYFVKFNFNSFTKIVDGLDGIEVDVPVEFTEQNSKDEPDAIHLKKGLQKLTGEEALALARTRHIDSDAMRGQRQQLVIEAILSKLKSVGSITKLEKIVEAVDGDFKTNLAMDDILSFYKYGLNCSIEKIQLAGDDLYLPNGPNGQRVYYYNPNKKDLQSLSNTLRTHLGLSEKQIEENLEHHHHHH	not failed
MITSTNKEAYPNTLIVILGHDEGRSSFEEKEDVTRVTNDKGETIGFNFFNVDKLIDFDKLPNGPVKLSDDELEALNKKLAEVGFDDKLEYGKPTLVYGYVKTCEKHPDSDHLHVTTIEVGDGEEHQIVCGAPNIAQGQKVVVALPGTLMPNGAQIWPGKLRGVDSYGMICSARELGLPHAPQKRGIMVVPDSFEVGAEFEPTKCDELIASGEITLLEHHHHHH	not failed
MITVFGLKSKLAPRREKLAEVIYNSLHLGLDIPKGKHAIRFLCLEKEDFYYPFDRSDDYTVIEINLMAGRMEGTKKRLIKMLFSELEYKLGIRAHDVEITIKEQPAHCWGFRGMTGDEARDLDYDIYV	not failed
MITVVGGTFSKLHKGHKALLNTAIDTGNEVVIGLTSDEYVKKNKVYPAIPYSVRYRTLYNYMIKRTNKFRIRQIDDRNGNAPYEKDYEVIVVSPETYPRSLKINEIRISNGLPPLKIIRVPYVLAQDLFPISSTRIINGEID	not failed
MITYPKQMRDSGFKFEFFCDQGGYYQHVMDHLISCTQRQETPVNISNIPKCKAVLVTSLTGEIIKAQGRHLDMLLIVFED	failed
MIVAWTLGIFGDDLPKGGARETGLLVHVSAGLLILAALIMRLVWRAAVPPPPPEPNEFRRWLGAFADPSARLFHYTLYALLVVVPVAGIVTQFARGEALPLLGIYEISSPWIRDRAFAHSVKEIHEIAAHALVFVAFFHAGAALIHHIVFRDNTLNRMLPRSK	failed
MIVCKNRIGTMKRLGRISLRVLLLAGVLLSLLLMAMTLLYPPVEKGGLFFMLAIEVALLFFLGFLYNKVVLPIRAVGDGMDMLRSQDYATTLAPVGQPDADRVVELYNALMHSLKKERLRLEERDNFLSLVMDVSPVGFVVLDFDMRVVSVNPAARRLLDLPDDYIPIERPLEEVCAKIPFGPDELGEGESRTWRLPTAEVRRITRMRFFDRSFSRLFFSIETLTEELHSAEKEAYEKLIRLIAHEVNNSTAGIIGVLNAVGDAFDDTPHTPEGEVSEAIALCRDRCMAMSRFITRFAEVVKLPDPTLSSVDLVPLCERCILLMQPLAVETGVKMKMCKEQDSCLVRCDAEQIEQVVINLLRNAIESFAQQNDLAVSATKTVLLCLDRHNLLVEDNGQPISDDVATRLFTPFFSTKPNGQGIGLVVIREVLTRHGWSFSLTTDADGRTRFRMAWP	failed
